Laboratory results as given in patent US11814435B2, “Therapeutic antibodies and their uses” (PFIZER INC., priority 2015, dated 2023).

T1: hBCMA (human BCMA) (Homo sapiens, UniProt Q02223)
T1 sequence (Q02223 1-184): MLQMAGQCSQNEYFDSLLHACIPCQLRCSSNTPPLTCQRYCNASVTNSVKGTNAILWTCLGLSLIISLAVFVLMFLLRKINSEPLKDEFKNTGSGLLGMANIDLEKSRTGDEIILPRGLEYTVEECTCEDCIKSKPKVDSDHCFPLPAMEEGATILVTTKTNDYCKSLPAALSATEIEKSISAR


Experiments:
CD3 = CD3 (Homo sapiens, UniProt P07766); experiment: Biacore kinetics of anti-CD3 hIgG2dA bispecifics at 37° C.; assay type: binding
CD3, sequence (P07766 23-126 limits assumed): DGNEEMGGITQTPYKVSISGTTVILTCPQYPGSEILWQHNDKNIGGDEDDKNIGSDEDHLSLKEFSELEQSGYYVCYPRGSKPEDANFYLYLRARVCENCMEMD
CD3, sequence (P04234 22-105 partner limits assumed): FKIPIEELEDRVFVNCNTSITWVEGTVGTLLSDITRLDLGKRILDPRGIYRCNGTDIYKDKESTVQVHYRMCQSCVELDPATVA

hBCMA (human BCMA) = molecular target: T1, hBCMA (human BCMA); experiment: Kinetics and affinity of hBCMA/human IgG interactions by SPR (Bio-Rad Proteon XPR36); assay type: binding; settings: human BCMA, 37° C.
Method in brief: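 Captured here: binding of soluble BCMA to covalently coupled anti-BCMA IgGs, measured at 37° C. or 25° C. with a five-point single-cycle series (top 50 nM, fivefold dilution) and extended 2 h off-rate phase, analyzed by a 1:1 mass-transport-corrected model.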

Cyno BCMA = experiment: Kinetics and affinity of cyno BCMA/human IgG interactions by SPR (Bio-Rad Proteon XPR36); assay type: binding, cynomolgus; settings: 37° C.

Molecule | Kd (CD3) [nM] | ka (CD3) [M⁻¹ s⁻¹] | kd (CD3) [s⁻¹] | ka Human (hBCMA (human BCMA)) [M⁻¹ s⁻¹] | kd Human (hBCMA (human BCMA)) [s⁻¹] | kd Cyno (Cyno BCMA) [s⁻¹] | Kd (hBCMA (human BCMA)) [nM] | Kd (Cyno BCMA) [nM] | ka Cyno (Cyno BCMA) [M⁻¹ s⁻¹]
COMBO_Rd4_6 nM_C02: anti-BCMA antibody (antibody, V domains shown) VH: EVQLLESGGGLVQPGGSLRLSCAASGFTFSSYAMNWVRQAPGKGLEWVSAISDSGGFVYYADSVKGRFTISRDNSKNTLYLQMNSLRAEDTAVYYCARYWPMDSWGQGTLVTVSS VL: EIVLTQSPGTLSLSPGERATLSCRASQSVSSSYLAWYQQKPGQAPRLLMYDASIRATGIPDRFSGSGSGTDFTLTISRLEPEDFAVYYCQQYEFWPLTFGQGTKVEIK |  |  |  | 1.05e+06 | 0.000443 | 0.00136 |  |  | 795000
A02_Rd4_0.6 nM_C09: anti-BCMA antibody (antibody, V domains shown) VH: EVQLLESGGGLVQPGGSLRLSCAASGFTFSSYAMNWVRQAPGKGLEWVSAISDSGGSMWYADSVKGRFTISRDNSKNTLYLQMNSLRAEDTAVYYCARYWPMSLWGQGTLVTVSS VL: EIVLTQSPGTLSLSPGERATLSCRASQSVSSSYLAWYQQKPGQAPRLLMYDASIRATGIPDRFSGSGSGTDFTLTISRLEPEDFAVYYCQQYQSWPLTFGQGTKVEIK |  |  |  | 5.5e+06 | 9.75e-05 | 0.000174 |  |  | 2.13e+06
COMBO_Rd4_0.6 nM_C05: anti-BCMA antibody (antibody, V domains shown) VH: EVQLLESGGGLVQPGGSLRLSCAASGFTFSSYAMNWVRQAPGKGLEWVSAIGGSGGSTYYADSVKGRFTISRDNSKNTLYLQMNSLRAEDTAVYYCARYWPMSLWGQGTLVTVSS VL: EIVLTQSPGTLSLSPGERATLSCRASQSVSSTYLAWYQQKPGQAPRLLMYDASIRATGIPDRFSGSGSGTDFTLTISRLEPEDFAVYYCQQYMSWPLTFGQGTKVEIK |  |  |  | 4.32e+06 | 0.000497 | 0.00172 |  |  | 1.94e+06
A02_Rd4_0.6 nM_C06: anti-BCMA antibody (antibody, V domains shown) VH: EVQLLESGGGLVQPGGSLRLSCAASGFTFSSYAMNWVRQAPGKGLEWVSAISDSGGSAWYADSVKGRFTISRDNSKNTLYLQMNSLRAEDTAVYYCARYWPMSLWGQGTLVTVSS VL: EIVLTQSPGTLSLSPGERATLSCRASQSVSVLYLAWYQQKPGQAPRLLMYDASIRATGIPDRFSGSGSGTDFTLTISRLEPEDFAVYYCQQYQRWPLTFGQGTKVEIK |  |  |  | 3.49e+06 | 7.37e-05 | 0.000105 | 0.021 | 0.058 | 1.81e+06
COMBO_Rd4_0.6 nM_C17: anti-BCMA antibody (antibody, V domains shown) VH: EVQLLESGGGLVQPGGSLRLSCAASGFTFSSYPMSWVRQAPGKGLEWVSAIGGSGGSLPYADSVKGRFTISRDNSKNTLYLQMNSLRAEDTAVYYCARYWPMDIWGQGTLVTVSS VL: EIVLTQSPGTLSLSPGERATLSCRASQGISSTYLAWYQQKPGQAPRLLMYDASIRATGIPDRFSGSGSGTDFTLTISRLEPEDFAVYYCQQYAYWPLTFGQGTKVEIK |  |  |  | 8.68e+06 | 0.000801 | 0.00101 |  |  | 3.06e+06
COMBO_Rd4_0.6 nM_C11: anti-BCMA antibody (antibody, V domains shown) VH: EVQLLESGGGLVQPGGSLRLSCAASGFTFSSYPMSWVRQAPGKGLEWVSAALGSGGSTYYADSVKGRFTISRDNSKNTLYLQMNSLRAEDTAVYYCARYWPMSLWGQGTLVTVSS VL: EIVLTQSPGTLSLSPGERATLSCRASQSVSVRYLAWYQQKPGQAPRLLMYDASIRATGIPDRFSGSGSGTDFTLTISRLEPEDFAVYYCQQYGSWPITFGQGTKVEIK |  |  |  | 5.11e+06 | 0.00106 | 0.00423 |  |  | 2.2e+06
A02_Rd4_6 nM_C03: anti-BCMA antibody (antibody, V domains shown) VH: EVQLLESGGGLVQPGGSLRLSCAASGFTFSSYAMNWVRQAPGKGLEWVSAISDSGGSTYYADSVKGRFTISRDNSKNTLYLQMNSLRAEDTAVYYCARYWPMDIWGQGTLVTVSS VL: EIVLTQSPGTLSLSPGERATLSCRASQSVSNLYLAWYQQKPGQAPRLLMYDASIRATGIPDRFSGSGSGTDFTLTISRLEPEDFAVYYCQQYQGWPLTFGQGTKVEIK |  |  |  | 1.69e+06 | 0.000126 | 0.000185 |  |  | 1.17e+06

Now from value to molecule, other results behind:

Kd (CD3) [nM] | ka (CD3) [M⁻¹ s⁻¹] | kd (CD3) [s⁻¹] | ka Human (hBCMA (human BCMA)) [M⁻¹ s⁻¹] | kd Human (hBCMA (human BCMA)) [s⁻¹] | kd Cyno (Cyno BCMA) [s⁻¹] | Kd (hBCMA (human BCMA)) [nM] | Kd (Cyno BCMA) [nM] | Molecule | ka Cyno (Cyno BCMA) [M⁻¹ s⁻¹]
40.4 | 586000 | 0.0237 |  |  |  |  |  | h2B4-1d_Ep: anti-EpCam/CD3 bispecific, human IgG2dA, anti-CD3 arm h2B4-1d (h2B4) (antibody, V domains shown, left off: another chain or arm of the molecule; a dimerising Fc or GST; small tags and cut ends) VH: EVQLVESGGGLVQPGGSLRLSCAASGFTFSDYYMTWVRQAPGKGLEWVAFIRNRARGYTSDHNASVKGRFTISRDNAKNSLYLQMNSLRAEDTAVYYCARDRPSYYVLDYWGQGTTVTVSS VL: DIVMTQSPDSLAVSLGERATINCTSSQSLFNVRSRKNYLAWYQQKPGQPPKLLISWASTRESGVPDRFSGSGSGTDFTLTISSLQAEDVAVYYCKQSYDLFTFGSGTKLEIK | 
31.2 | 754000 | 0.0235 |  |  |  |  |  | h2B4-hnpsTK_Ep: anti-EpCam/CD3 bispecific, human IgG2dA, anti-CD3 arm h2B4-hnpsTK (h2B4-VH-hnps VL_TK) (antibody, V domains shown, left off: another chain or arm of the molecule; a dimerising Fc or GST; small tags and cut ends) VH: EVQLVESGGGLVQPGGSLRLSCAASGFTFSDYYMTWVRQAPGKGLEWVAFIRNRARGYTSDHNPSVKGRFTISRDNAKNSLYLQMNSLRAEDTAVYYCARDRPSYYVLDYWGQGTTVTVSS VL: DIVMTQSPDSLAVSLGERATINCKSSQSLFNVRSRKNYLAWYQQKPGQPPKLLISWASTRESGVPDRFSGSGSGTDFTLTISSLQAEDVAVYYCKQSYDLFTFGSGTKLEIK | 
54.4 | 474000 | 0.0258 |  |  |  |  |  | h2B4-yaesTK_Ep: anti-EpCam/CD3 bispecific, human IgG2dA, anti-CD3 arm h2B4-yaesTK (h2B4-VH-yaes VL_TK) (antibody, V domains shown, left off: another chain or arm of the molecule; a dimerising Fc or GST; small tags and cut ends) VH: EVQLVESGGGLVQPGGSLRLSCAASGFTFSDYYMTWVRQAPGKGLEWVAFIRNRARGYTSDYAESVKGRFTISRDNAKNSLYLQMNSLRAEDTAVYYCARDRPSYYVLDYWGQGTTVTVSS VL: DIVMTQSPDSLAVSLGERATINCKSSQSLFNVRSRKNYLAWYQQKPGQPPKLLISWASTRESGVPDRFSGSGSGTDFTLTISSLQAEDVAVYYCKQSYDLFTFGSGTKLEIK | 
31 | 687000 | 0.0213 |  |  |  |  |  | h2B4-TK_Ep: anti-EpCam/CD3 bispecific, human IgG2dA, anti-CD3 arm h2B4-TK (h2B4-VH-wt VL_TK) (antibody, V domains shown, left off: another chain or arm of the molecule; a dimerising Fc or GST; small tags and cut ends) VH: EVQLVESGGGLVQPGGSLRLSCAASGFTFSDYYMTWVRQAPGKGLEWVAFIRNRARGYTSDHNASVKGRFTISRDNAKNSLYLQMNSLRAEDTAVYYCARDRPSYYVLDYWGQGTTVTVSS VL: DIVMTQSPDSLAVSLGERATINCKSSQSLFNVRSRKNYLAWYQQKPGQPPKLLISWASTRESGVPDRFSGSGSGTDFTLTISSLQAEDVAVYYCKQSYDLFTFGSGTKLEIK | 
 |  |  | 3.03e+06 | 0.000775 | 0.00165 |  |  | COMBO_Rd4_6 nM_C22: anti-BCMA antibody (antibody, V domains shown) VH: EVQLLESGGGLVQPGGSLRLSCAASGFTFSSYAMNWVRQAPGKGLEWVSACLDSGGSTYYADSVKGRFTISRDNSKNTLYLQMNSLRAEDTAVYYCARYWPMDSWGQGTLVTVSS VL: EIVLTQSPGTLSLSPGERATLSCRASQSVSSSYLAWYQQKPGQAPRLLMYDASIRATGIPDRFSGSGSGTDFTLTISRLEPEDFAVYYCQQYQGWPLTFGQGTKVEIK | 1.7e+06
25.1 | 1.2e+06 | 0.0301 |  |  |  |  |  | h25A8-C8_Ep (antibody, V domains shown, left off: another chain or arm of the molecule; a dimerising Fc or GST; small tags and cut ends) VH: EVQLVESGGGLVKPGGSLRLSCAASGFTFNTYAMNWVRQAPGKGLEWVGRIRSKINNYATYYAESVKGRFTISRDDSKNTLYLQMNSLKTEDTAVYYCVRHETLRSGISWFASWGQGTLVTVSS VL: QAVVTQEPSLTVSPGGTVTLTCRSSTGAVTTSNYANWVQQKPGQAPRGLIGGTNTRAPGTPARFSGSLLGGKAALTLSGAQPEDEAEYYCVLWYNNHWVFGGGTKLTVL | 
